The data set deals with the molecule itself. Kind of data set: cryo-EM structure; purified F pili in Tris-HCl, 200 mM NaCl, pH 8.0, vitrified; helical reconstruction (IHRSR), two classes with axial rise 12.5 A and 13.2 A, 5.0 A maps.

B1: F TraA pilin (natural protein, E. coli (F plasmid; pOX38 in DH5alpha), UniProt P04737 52-121, looked up)
chain: AGSSGQDLMASGNTTVKATFGKDSSVVKWVVLAEVLVGAVMYMMTKNVKFLAGFAIISVFIAVGMAVVGL
notes: TraA pilin of the F pilus encoded by the F plasmid derivative pOX38; N terminus 4 aa longer than that of pED208 TraA and disordered in the maps; Stands in the pilus as a helical polymer; two filament populations (axial rise 12.5 A and 13.2 A); also called F pilin; F pilus subunit; source: produced in vivo from the pOX38-Cm plasmid in E. coli DH5alpha
B1: the binding result is recorded as “binds”.

The values above are taken from PMC5018250, “Structure of the Bacterial Sex F Pilus Reveals an Assembly of a Stoichiometric Protein-Phospholipid Complex” (Cell, 2016).
